Here are results for 15 molecules from patent US20120114665A1 (Regeneron, published 2012).

Test [1] deals with T1, human RANKL (receptor activator of NF-κB ligand) (human, UniProt O14788 140-317, limits assumed).
T1 construct: also called hRANKL; hRANKL native trimer
T1 sequence: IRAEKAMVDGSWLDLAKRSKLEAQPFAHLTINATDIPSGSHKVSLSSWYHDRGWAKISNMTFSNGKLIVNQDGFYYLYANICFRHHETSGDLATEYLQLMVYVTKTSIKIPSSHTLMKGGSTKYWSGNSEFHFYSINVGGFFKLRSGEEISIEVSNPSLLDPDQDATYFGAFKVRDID
Put plainly: SPR (BIACORE), purified antibody, 25°C. (In SPR one partner is held on a chip, and binding of the other changes the refractive index at the surface.)

The target of test [2] is T1, human RANKL (receptor activator of …). In words: SPR (BIACORE), purified antibody, 37°C.
Test [3] deals with T2, penta-his-tagged hRANKL (human).
T2 construct: also called his-hRANKL; not shown: penta-his tag
T2 chain: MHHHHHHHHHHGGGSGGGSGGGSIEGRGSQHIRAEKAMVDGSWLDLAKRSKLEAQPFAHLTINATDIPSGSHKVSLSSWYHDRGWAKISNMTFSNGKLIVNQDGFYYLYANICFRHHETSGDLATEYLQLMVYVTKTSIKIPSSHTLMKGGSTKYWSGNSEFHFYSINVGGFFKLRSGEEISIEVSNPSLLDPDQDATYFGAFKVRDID
Put plainly: competition ELISA: 150 pM his-hRANKL pre-mixed with antibody, free RANKL detected on hRANK-hFc plate. The method, then: (§1) Briefly, hRANK-hFc protein was coated on a 96-well plate in PBS buffer overnight at 4° C. at 2 μg/ml, and nonspecific binding was blocked with BSA, to form a hRANK-hFc surface.

Test [4] deals with T1, human RANKL (receptor activator of …). In words: cell-based or functional assay.
Test [5] concerns the target T3, penta-his-tagged monkey (Macaca fascicularis) RANKL (Macaca fascicularis, UniProt O14788 125-317 (human entry)).
T3 construct: also called his-mfRANKL; mfRANKL; not shown: penta-his tag
T3 chain: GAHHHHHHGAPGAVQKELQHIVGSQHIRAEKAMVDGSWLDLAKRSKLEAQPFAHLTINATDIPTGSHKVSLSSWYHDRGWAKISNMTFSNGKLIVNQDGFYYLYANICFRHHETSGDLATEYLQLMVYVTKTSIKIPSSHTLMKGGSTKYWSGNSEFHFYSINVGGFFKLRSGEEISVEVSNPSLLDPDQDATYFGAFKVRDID
Put plainly: competition ELISA: 150 pM his-mfRANKL pre-mixed with antibody, free RANKL detected on hRANK-hFc plate. How it is done: as §1
A general note: An ELISA detects its analyte on a solid surface through an enzyme-linked reagent.

For test [6], the target named is T1, human RANKL (receptor activator of …). In words: SPR (BIACORE 2000), antibody captured on anti-hFc, hRANKL injected. How it is done: Equilibrium dissociation constants (KD values) for antigen binding to the selected antibodies generated by hybridoma cell lines described above were determined by surface kinetics in a real-time biosensor surface plasmon resonance assay (BIACORE™ 2000). Each selected antibody was captured on a goat anti-mouse IgG polyclonal antibody surface created through direct chemical coupling to a BIACORE™ chip to form a captured antibody surface.
Each selected antibody was captured on a goat anti-hFc polyclonal antibody (Jackson Immuno Research Lab) surface created through direct chemical coupling to a BIACORE™ chip to form a captured antibody surface (Table 2).

B1: H4H002P (antibody, V domains shown)
VH: QVQLVESGGGVVQPGRSLRLSCAASGFTFTGYGMHWVRQAPDKGLEWVAVISYDGTNKYYVDSVKGRFTISRDNSQNTLYLQMNSLRAEDTAVYYCAKCLSGTYWGYGMDVWGQGTTVTVS
VL: DIQMTQSPSTLSASVGDRVTITCRASRSINSWLAWYQQKPGKAPKLLIYKASSLESGVPSRFSGSGSGTEFTLTISSLQPDDFASYYCQQYNNYSWTFGQGTKVEIK
notes: Purified antibody from clone 1F8
For the molecule B1, the Kd in test [1] was 0.262 nM; in test [2], 0.0531 nM. Besides, the concentration for half-maximal inhibition (IC50) in test [3] is 0.165 nM; in test [5], 1.36 nM. The “IC50, hRANKL-inducible luciferase activity in HK293/RANK/NFκB-luc-eGFP cells” value (“IC50 … in HK293/RANK/NFκB-luc-eGFP cells” below) in test [4] came out at 0.214 nM.

B2: 2H10 (antibody, V domains shown)
VH: QVQLVESGGGVVQPGRSLRLSCAASGFTFSGYGIHWVRQAPDKGLEWVAVISYDGTNKYYGDSVKGRFTISRDNTKNTLYLQMNSLRTEDTAVYYCAKSLSGTYWGYGMDVWGQGTTVTVSS
VL: AIQMTQSPSTLSASVGDRVTITCRASQNIGNWLAWYQQKPGKAPKLLIYKASSLQNGVPSRFSGSGSGTEFTLTISSLQPDDFATYYCQRYNSYSWTFGQGTKVEIK
notes: From direct isolation of splenocytes; captured on anti-hFc; also called H4H009N
Take B2: the equilibrium dissociation constant (Kd) in test [6] was determined as 0.0158 nM.

B3: 2H12 (antibody, V domains shown)
VH: QVQLVQSGGGVVQPGRSLRLSCAASGFTFSGYGMHWVRQAPGKGLDWVTVISYDGSNKHYADSVKGRFTISRDNSKNTLYLQMSSLGPEDTAVYYCAKSLSGTYWGYGMDVWGQGTTVTVSS
VL: AIQMTQSPSTLSASVGDRVTITCRASQNISSWLAWYQQKPGKAPKLLIYKASSLESGVPSRFSGSGSGTEFTLTVSSLQPDDFATYYCQQYNRYSWTFGQGTKVEIK
notes: From direct isolation of splenocytes; captured on anti-hFc; also called H4H010N
In test [6], B3 came in with a Kd of 0.0331 nM.

B4: 2E10 (antibody, V domains shown)
VH: QVQLVQSGGGVVHPGRSLTLSCAASGFTFSGYGMHWVRQAPGKGLEWVAVISYDGINKYYADSVKGRFTISRDNSKNTLYLQMNSLRAEDTAIYYCAKCLSGSYWGFGMDVWGQGTTVTVSS
VL: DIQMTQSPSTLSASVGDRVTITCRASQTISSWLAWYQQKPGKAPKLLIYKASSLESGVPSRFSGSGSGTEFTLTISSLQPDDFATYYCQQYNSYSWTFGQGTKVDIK
notes: From direct isolation of splenocytes; captured on anti-hFc; also called H4H005N
B4 returned a Kd in test [6] of 0.0172 nM.

B5: 2E12 (antibody, V domains shown)
VH: QVQLVQSGGGVVQPGRSLRLSCAASGFTFSGYGMHWVRQAPGMGLEWVAVISYDGINKYYADSVKGRFTISRDNSKNTLFLQMNSLRAEDTALYYCAKCLSGTYWGYGMDVWGQGTTVTVSS
VL: AIQMTQSPSTLSASVGDRVTITCRASQSISSWLAWYQLKPGKAPKLLIYKASSLESGVPSRFGGSGSGTEFTLTISSLQPDDFATYYCQHYNSYSWTFGQGTKVEIK
notes: From direct isolation of splenocytes; captured on anti-hFc; also called H4H007N
With B5, the Kd in test [6] was found to be 0.0957 nM.

B6: H4H010P (antibody, V domains shown)
VH: QVQLVESGGGVVQPGRSLRLSCAASGFTFSGYGMHWVRQAPGKGLDWVTVISYDGSNKHYADSVKGRFTISRDNSKNTLYLQMSSLGPEDTAVYYCAKSLSGTYWGYGMDVWGQGTTVTVS
VL: DIQMTQSPSTLSASVGDRVTITCRASQNISSWLAWYQQKPGKAPKLLIYKASSLESGVPSRFSGSGSGTEFTLTVSSLQPDDFATYYCQQYNRYSWTFGQGTKVEIK
notes: Purified antibody from clone 2H12
As for B6, the Kd in test [1] came to 0.0697 nM; in test [2], 0.0779 nM. The IC50 came to 0.045 nM in test [3] and 0.15 nM in test [5]. For the same molecule, the “IC50 … in HK293/RANK/NFκB-luc-eGFP cells” value in test [4] stood at 0.051 nM.

B7: H4H006P (antibody, V domains shown)
VH: QVQLVESGGGVVQPGRSLRLSCAASGFTFGGYGMHWVRQAPDKGLEWVAVISYDGNNKYYVDSVKGRFTISRDNSKNMLYLQMNSLRAEDTAVYYCAKCLSGTYWGYGMDGWGQGTTVTVS
VL: DIQMTQSPSTLSASVGDRVTITCRASQSISNWLAWYQQKPGKAPKLLIYKASNLQSGVPSRFSGSGSGTEFTLTISSLQPDDFATYYCQQYNNYSWTFGQGTKVEIK
notes: Purified antibody from clone 2E11
In the case of B7, the Kd was found to be 0.172 nM in test [1] and 0.044 nM in test [2]. Also, the results for the IC50 in test [3] and in test [5] were 0.085 nM and 0.42 nM, respectively. The “IC50 … in HK293/RANK/NFκB-luc-eGFP cells” value in test [4] stood at 0.08 nM.

B8: H4H006G (antibody, V domains shown)
VH: QVQLVESGGGVVQPGRSLRLSCAASGFTFGGYGMHWVRQAPGKGLEWVAVISYDGNNKYYADSVKGRFTISRDNSKNTLYLQMNSLRAEDTAVYYCAKCLSGTYWGYGMDGWGQGTTVTVS
VL: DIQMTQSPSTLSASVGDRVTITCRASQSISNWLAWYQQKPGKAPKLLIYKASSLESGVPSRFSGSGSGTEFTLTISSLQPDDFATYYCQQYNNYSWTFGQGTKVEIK
notes: as for B7
With B8, the figures for the Kd in test [1] and in test [2] were 0.265 nM and 0.0415 nM, respectively. Also, the IC50 in test [3] is 0.195 nM; in test [5] it was 1.24 nM. Moreover, the “IC50 … in HK293/RANK/NFκB-luc-eGFP cells” value in test [4] came out at 0.171 nM.

B9: H4H005P (antibody, V domains shown)
VH: QVQLVESGGGVVHPGRSLTLSCAASGFTFSGYGMHWVRQAPGKGLEWVAVISYDGINKYYADSVKGRFTISRDNSKNTLYLQMNSLRAEDTAIYYCAKCLSGSYWGFGMDVWGQGTTVTVS
VL: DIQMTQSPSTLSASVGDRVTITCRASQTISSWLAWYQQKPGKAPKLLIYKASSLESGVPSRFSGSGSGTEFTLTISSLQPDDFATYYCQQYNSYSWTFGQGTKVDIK
notes: Purified antibody from clone 2E10
In the case of B9, the results for the Kd in test [1] and in test [2] were 0.601 nM and 0.0453 nM, respectively. Also, the IC50 worked out at 1.16 nM in test [3] and 4.32 nM in test [5]. The “IC50 … in HK293/RANK/NFκB-luc-eGFP cells” value in test [4] is 1.17 nM.

B10: 1F8 (antibody, V domains shown)
VH: QVQLVQSGGGVVQPGRSLRLSCAASGFTFTGYGMHWVRQAPDKGLEWVAVISYDGTNKYYVDSVKGRFTISRDNSQNTLYLQMNSLRAEDTAVYYCAKCLSGTYWGYGMDVWGQGTTVTVSS
VL: AIQMTQSPSTLSASVGDRVTITCRASRSINSWLAWYQQKPGKAPKLLIYKASSLESGVPSRFSGSGSGTEFTLTISSLQPDDFASYYCQQYNNYSWTFGQGTKVEIK
notes: From direct isolation of splenocytes; captured on anti-hFc; also called H4H002N
Consider B10, for which, in test [6], the affinity, expressed as Kd, was 0.00785 nM.

B11: H4H005G (antibody, V domains shown)
VH: QVQLVESGGGVVQPGRSLRLSCAASGFTFSGYGMHWVRQAPGKGLEWVAVISYDGINKYYADSVKGRFTISRDNSKNTLYLQMNSLRAEDTAVYYCAKCLSGSYWGFGMDVWGQGTTVTVS
VL: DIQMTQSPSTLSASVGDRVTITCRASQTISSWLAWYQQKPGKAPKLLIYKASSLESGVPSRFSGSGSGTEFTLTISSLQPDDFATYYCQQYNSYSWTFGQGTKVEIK
notes: as for B9
B11: the Kd was found to be 0.0762 nM in test [1] and 0.0241 nM in test [2]. The IC50 stood at 3.13 nM in test [3] and 9.59 nM in test [5]. In addition, the “IC50 … in HK293/RANK/NFκB-luc-eGFP cells” value in test [4] turned out to be 1.06 nM.

B12: 2G10 (antibody, V domains shown)
VH: QVQLVQSGGGVVQPGRSLRLSCAASGFTFSGFGMHWVRQAPGKGLEWVAIISYDGRNKYYADSVKGRFTISRDNSKNTLYLQMNSLRAEDTAVYYCAKSLSGTYWGYGMDVWGQGTTVTVSS
VL: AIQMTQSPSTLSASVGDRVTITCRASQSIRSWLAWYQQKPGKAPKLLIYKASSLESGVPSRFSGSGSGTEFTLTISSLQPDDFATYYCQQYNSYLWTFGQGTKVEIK
notes: From direct isolation of splenocytes; captured on anti-hFc; also called H4H008N
B12 came in with a Kd in test [6] of 0.028 nM.

B13: 2E11 (antibody, V domains shown)
VH: QVQLVQSGGGVVQPGRSLRLSCAASGFTFGGYGMHWVRQAPDKGLEWVAVISYDGNNKYYVDSVKGRFTISRDNSKNMLYLQMNSLRAEDTAVYYCAKCLSGTYWGYGMDGWGQGTTVTVSS
VL: DIQMTQSPSTLSASVGDRVTITCRASQSISNWLAWYQQKPGKAPKLLIYKASNLQSGVPSRFSGSGSGTEFTLTISSLQPDDFATYYCQQYNNYSWTFGQGTKVEIK
notes: From direct isolation of splenocytes; captured on anti-hFc; also called H4H006N
In test [6], B13 displayed a Kd of 0.016 nM.

B14: H4H009G (antibody, V domains shown)
VH: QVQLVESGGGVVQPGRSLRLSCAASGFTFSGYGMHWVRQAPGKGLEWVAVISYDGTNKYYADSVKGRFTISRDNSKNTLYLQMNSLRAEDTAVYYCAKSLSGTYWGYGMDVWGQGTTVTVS
VL: DIQMTQSPSTLSASVGDRVTITCRASQNIGNWLAWYQQKPGKAPKLLIYKASSLESGVPSRFSGSGSGTEFTLTISSLQPDDFATYYCQRYNSYSWTFGQGTKVEIK
notes: Purified antibody from clone 2H10
As for B14, the Kd in test [1] worked out at 0.198 nM; in test [2], 0.0424 nM. Also, the IC50 turned out to be 0.065 nM in test [3] and 0.875 nM in test [5]. The “IC50 … in HK293/RANK/NFκB-luc-eGFP cells” value in test [4] turned out to be 0.102 nM.

B15: H4H007P (antibody, V domains shown)
VH: QVQLVESGGGVVQPGRSLRLSCAASGFTFSGYGMHWVRQAPGMGLEWVAVISYDGINKYYADSVKGRFTISRDNSKNTLFLQMNSLRAEDTALYYCAKCLSGTYWGYGMDVWGQGTTVTVS
VL: DIQMTQSPSTLSASVGDRVTITCRASQSISSWLAWYQLKPGKAPKLLIYKASSLESGVPSRFGGSGSGTEFTLTISSLQPDDFATYYCQHYNSYSWTFGQGTKVEIK
notes: Purified antibody from clone 2E12
For the molecule B15, the Kd amounted to 0.335 nM in test [1] and 0.0578 nM in test [2]. Moreover, the IC50 in test [3] is 0.335 nM; in test [5], 2.76 nM. Besides, the “IC50 … in HK293/RANK/NFκB-luc-eGFP cells” value in test [4] worked out at 0.452 nM.

A word on the Kd: it is the concentration at which binding is half-saturated. The term IC50 denotes the concentration needed to halve the response being measured.
